Assay results from patent publication US20040147443A1.

What was measured:
[1] = target: type-L calcium channels, verapamil site (rat cerebral cortex homogenates) (rat); test: specific binding of 0.5 nM (3H)(-)D 888 left with the MIXTURE of 1.0% Argireline and 1 x 10^-4 M magnesium gluconate; rat cerebral cortex membranes; replicate 1
[2] = target: type-L calcium channels, verapamil site (rat cerebral cortex homogenates) (rat); test: specific binding of 0.5 nM (3H)(-)D 888 left with the MIXTURE of 1.0% Argireline and 1 x 10^-4 M magnesium gluconate; rat cerebral cortex membranes
[3] = target: type-L calcium channels, verapamil site (rat cerebral cortex homogenates) (rat); test: inhibition of specific binding of (3H)(-)D 888 by 10% Argireline; rat cerebral cortex membranes
[4] = target: type-L calcium channels, verapamil site (rat cerebral cortex homogenates) (rat); test: specific binding of 0.5 nM (3H)(-)D 888 left with the MIXTURE of 1.0% Argireline and 1 x 10^-4 M magnesium gluconate; rat cerebral cortex membranes; replicate 3
[5] = target: type-L calcium channels, verapamil site (rat cerebral cortex homogenates) (rat); test: inhibition of specific binding of 0.5 nM (3H)(-)D 888 by the MIXTURE of 1.0% Argireline and 1 x 10^-4 M magnesium gluconate; rat cerebral cortex membranes
[6] = target: type-L calcium channels, verapamil site (rat cerebral cortex homogenates) (rat); test: inhibition of specific binding of 0.5 nM (3H)(-)D 888 by 1.0% Argireline; rat cerebral cortex membranes, scintillation counting
[7] = target: type-L calcium channels, verapamil site (rat cerebral cortex homogenates) (rat); test: specific binding of 0.5 nM (3H)(-)D 888 left with the MIXTURE of 1.0% Argireline and 1 x 10^-4 M magnesium gluconate; rat cerebral cortex membranes; replicate 2
[8] = target: type-L calcium channels, verapamil site (rat cerebral cortex homogenates) (rat); test: specific binding of 0.5 nM (3H)(-)D 888 left with 1.0% Argireline; rat cerebral cortex membranes, scintillation counting; replicate 3
[9] = target: type-L calcium channels, verapamil site (rat cerebral cortex homogenates) (rat); test: specific binding of 0.5 nM (3H)(-)D 888 left with 1.0% Argireline; rat cerebral cortex membranes, scintillation counting; replicate 1
[10] = target: type-L calcium channels, verapamil site (rat cerebral cortex homogenates) (rat); test: specific binding of 0.5 nM (3H)(-)D 888 left with 1.0% Argireline; rat cerebral cortex membranes, scintillation counting
[11] = target: type-L calcium channels, verapamil site (rat cerebral cortex homogenates) (rat); test: specific binding of 0.5 nM (3H)(-)D 888 left with 1.0% Argireline; rat cerebral cortex membranes, scintillation counting; replicate 2
[12] = target: type-L calcium channels, verapamil site (rat cerebral cortex homogenates) (rat); test: inhibition of specific binding of (3H)(-)D 888 by 5% Argireline; rat cerebral cortex membranes

% of binding [1]: 81.6% | Mean % of binding [2]: 84% | mean percentage of inhibition [3]: 52% | % of binding [4]: 85.1% | Mean % of inhibition [5]: 16% | Mean % of inhibition [6]: 4% | % of binding [7]: 85.3% | % of binding [8]: 99.9% | % of binding [9]: 95.1% | Mean % of binding [10]: 96.1% | % of binding [11]: 93.1% | mean percentage of inhibition [12]: 36%
Binder: Ac-EEMQRR-NH2
